In assay [1] the target is T1, recombinant human CD79b protein (human, UniProt P40259 29-159, limits assumed).
T1 sequence (looked up): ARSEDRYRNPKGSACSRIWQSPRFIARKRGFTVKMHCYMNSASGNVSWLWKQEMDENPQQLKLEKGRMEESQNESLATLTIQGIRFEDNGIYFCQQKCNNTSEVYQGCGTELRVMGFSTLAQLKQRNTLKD
The experiment in a line: ELISA on recombinant human CD79b protein.

For assay [2], the target named is T1, recombinant human CD79b protein. The experiment in a line: Octet assay.
Assay [3] has the same target. The experiment in a line: EC50 column of the drawn table; the table does not name the assay, the text gives an ELISA on recombinant human CD79b protein (FIG. 2B).
Assay [4] addresses T2, human CD79b expressed on cells (human, UniProt P40259 29-229).
T2 construct: whole, on cells; also called human CD79b expressed on mouse fibroblast L cells; CD79b on B cell lymphoma cell lines (Daudi, SUDHL6)
T2 sequence (looked up): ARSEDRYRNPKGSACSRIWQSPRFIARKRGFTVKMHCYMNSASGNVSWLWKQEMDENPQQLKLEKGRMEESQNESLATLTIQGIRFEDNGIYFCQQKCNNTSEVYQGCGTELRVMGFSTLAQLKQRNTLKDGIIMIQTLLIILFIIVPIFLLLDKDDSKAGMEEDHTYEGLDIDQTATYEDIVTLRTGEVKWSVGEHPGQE
The experiment in a line: ELISA on mouse fibroblast L cells expressing human CD79b. An excerpt:
Binding of anti-CD79b antibodies to human CD79b: Full length anti-CD79b monoclonal antibodies (clones 5B and 28B) isolated from hybridoma supernatants were used to test binding to human CD79b expressed on mouse fibroblast L cells by ELISA (FIG. 7).

Numbering of substitutions follows the chain as printed.

B1: anti-human CD79b monoclonal antibody clone 45 (IgG2) (antibody, V domains shown)
VH: EVQLQESGAELVRPGALVKLSCRASGFNIKDYYMHWVKQRPEQGLEWIGWIDPENGNSIYDPKFQGKASITADTSSNTAYLQLSSLTSEDTAVYYCAVDLYYGRGTLVTVSA
VL: NIMMTQSPSSLAVSAGEKVTMRCKSSQSVLYSSNQKNYLAWYQQKPGQSPKLLIYWASTRESGVPDRFTGSGSGTDFTLTISSVQAEDLAVYYCHQFLSSYTFGGGTKLEIK
B1: the “EC50 (read off the curve)” value in assay [1] is roughly 0.03 µg/mL. Also, the Kd in assay [2] came to 2 nM. The concentration for a half-maximal effect (EC50) in assay [3] was 0.0301 µg/mL.

B2: anti-CD79b monoclonal antibody clone 5B (antibody, V domains shown)
VH: EVQLQESGAELVKPGASVKMSCKASGYTFTSYWMHWVKQRPGQGLEWIGAIDPSDSYTGYNQKFKGKATLTVDTSSSTAYMHLSSLTSEDSAVYFCTRSYYGNSWFDYWGQGTLVTVSA
VL: DIVLTQSPASLAVSLGQRATISCKASQSVDYEGDSYMNWYQQKPGQPPKLLIYAASNLESGIPARFSGSGSGTDFTLNIHPVEEEDAATYHCQQSNEDPFTFGGGTKLEIK
notes: Full length monoclonal antibody isolated from hybridoma supernatant
With B2, in assay [4], the EC50 was 0.0409 µg/mL and the half-maximal effective concentration (EC50 (read off the curve)) is roughly 0.04 µg/mL.

B3: anti-CD79b monoclonal antibody clone 28B (antibody, V domains shown)
VH: B2 VH with D107A
VL: B2 VL with E32D, A54V, H91Y, G104S, K111N
notes: as for B2
Take B3: in assay [4], the response was half-maximal at 0.0252 µg/mL (EC50) and the “EC50 (read off the curve)” value was roughly 0.02 µg/mL.

B4: anti-human CD79b monoclonal antibody clone 14 (IgG1) (antibody, V domains shown)
VH: EVQLQESGPELKKPGETVKISCKASGYTFTDYSMHWVKQAPGKGLKWMGWINTETGEPTYADDFKGRFAFSLETSASTAYLQINNLKNDDTATYFCNMDSWGQGTSVTVSS
VL: QIVLTQSPAIMSASPGEKVTMTCSASSSVSYMWWYHQKPGSSPRLLIFDTSNLASGVPVRFSGSGSGTSYSLTISRMEAEDAATYYCQQWTSYPYTFGGGTKLEIK
Regarding B4, the “EC50 (read off the curve)” value in assay [1] is roughly 0.02 µg/mL. In addition, the dissociation constant Kd in assay [2] is 1.44 nM. Moreover, the EC50 in assay [3] turned out to be 0.0162 µg/mL.
